Measurements from doi:10.1101/209643 (bioRxiv, 2017).

Molecular target: the molecule itself
Assay: TIRF microscopy of filament polymerisation

B1: Double mutant septin complex (Cdc10, Cdc3, Cdc12 T75A, Cdc11 D65T-GFP) (complex)
chain 1: MSAATATAAPVPPPVGISNLPNQRYKIVNEEGGTFTVMLCGESGLGKTTFINTLFQTVLKRADGQQHRQEPIRKAVEIDITRALLEEKHFELRVNVIDTPGFGDNVNNNKAWQPLVDFIDDQHDSYMRQEQQPYRTKKFDLRVHAVLYFIRPTGHGLKPIDIETMKRLSTRANLIPVIAKADTLTAQELQQFKSRIRQVIEAQEIRIFTPPLDADSKEDAKSGSNPDSAAVEHARQLIEAMPFAIVGSEKKFDNGQGTQVVARKYPWGLVEIENDSHCDFRKLRALLLRTYLLDLISTTQEMHYETYRRLRLEGHENTGEGNEDFTLPAIAPARKLSHNPRYKEEENALKKYFTDQVKAEEQRFRQWEQNIVNERIRLNGDLEEIQGKVKKLEEQVKSLQVKKSHLK
chain 2: MDPLSSVQPASYVGFDTITNQIEHRLLKKGFQFNIMVVGQSGLGKSTLINTLFASHLIDSATGDDISALPVTKTTEMKISTHTLVEDRVRLNINVIDTPGFGDFIDNSKAWEPIVKYIKEQHSQYLRKELTAQRERFITDTRVHAILYFLQPNGKELSRLDVEALKRLTEIANVIPVIGKSDTLTLDERTEFRELIQNEFEKYNFKIYPYDSEELTDEELELNRSVRSIIPFAVVGSENEIEINGETFRGRKTRWSAINVEDINQCDFVYLREFLIRTHLQDLIETTSYIHYEGFRARQLIALKENANSRSSAHMSSNAIQR
chain 3: MSLKEEQVSIKQDPEQEERQHDQFNDVQIKQESQDHDGVDSQYTNGTQNDDSERFEAAESDVKVEPGLGMGITSSQSEKGQVLPDQPEIKFIRRQINGYVGFANLPKQWHRRSIKNGFSFNLLCVGPDGIGKTTLMKTLFNNDDIEANLVKDYEEELANDQEEEEGQGEGHENQSQEQRHKVKIKSYESVIEENGVKLNLNVIDTEGFGDFLNNDQKSWDPIIKEIDSRFDQYLDAENKINRHSINDKRIHACLYFIEPTGHYLKPLDLKFMQSVYEKCNLIPVIAKSDILTDEEILSFKKTIMNQLIQSNIELFKPPIYSNDDAENSHLSERLFSSLPYAVIGSNDIVENYSGNQVRGRSYPWGVIEVDNDNHSDFNLLKNLLIKQFMEELKERTSKILYENYRSSKLAKLGIKQDNSVFKEFDPISKQQEEKTLHEAKLAKLEIEMKTVFQQKVSEKEKKLQKSETELFARHKEMKEKLTKQLKALEDKKKQLELSINSASPNVNHSPVPTKKKGFLR
chain 4: MSGIIDASSALRKRKHLKRGITFTVMIVGQSGSGRSTFINTLCGQQVVDTSTTILLPTDTSTEITLQLREETVELEDDEGVKIQLNIIDTPGFGDSLDNSPSFEIISDYIRHQYDEILLEESRVRRNPRFKDGRVHCCLYLINPTGHGLKEIDVEFIRQLGSLVNIIPVISKSDSLTRDELKLNKKLIMEDIDRWNLPIYNFPFDEDEISDEDYETNMYLRTLLPFAIIGSNEVYEMGGDVGTIRGRKYPWGILDVEDSSISDFVILRNALLISHLHDLKNYTHEILYERYRTEALSGESVAAESIRPNLTKLNGSSSSSTTTRRNTNPFKQSNNINNDVLNPASDMHGQSTGENNETYMTREEQIRLEEERLKAFEERVQQELLLKRQELLQREKELREIEARLEKEAKIKQEE
B1: binds.
